From patent publication US20210024639A1 (AGOMAB THERAPEUTICS, published 2021)

Assays:
[1] = target: T1, native human MET on living human cells (human, UniProt P08581 25-1390); assay: flow cytometry, A549 cells
T1 construct: whole, on cells; also called Human cells (A549); HPAF-II
Description: (§1) We also analysed whether chimeric anti-MET antibodies bound to native human and mouse MET in living cells. […] Antibody binding to cells was analysed by flow cytometry using phycoerythrin-conjugated anti-human IgG1 antibodies (eBioscience) and a CyAn ADP analyser (Beckman Coulter). As a positive control for human MET binding, we used a commercial mouse anti-human MET antibody (R&D Systems) and phycoerythrin-conjugated anti-mouse IgG1 antibodies (eBioscience). As a positive control for mouse MET binding we used a commercial goat anti-mouse MET antibody (R&D Systems) and phycoerythrin-conjugated anti-goat IgG1 antibodies (eBioscience). […] Consistent with the data obtained in ELISA, maximal binding (EMAX) varied depending on antibody, but was similar in human and mouse cells.

[2] = target: T2, human MET-Fc chimeric protein (R&D Systems) (human, UniProt P08581 25-932); assay: competition ELISA, hMET-Fc in solid phase, competitor 0.3 nM biotinylated hHGF
T2 construct: extracellular domain; bought (R&D Systems); also called hMET; not shown: Fc portion of human IgG1
Description: (§2) To investigate along this line, we tested the competition between mAbs and HGF by ELISA. Recombinant human and mouse HGF (R&D Systems) were biotinylated at the N-terminus using NHS-LC-biotin (Thermo Scientific). MET-Fc protein, either human or mouse (R&D Systems), was immobilized in solid phase and then exposed to 0.3 nM biotinylated HGF, either human or mouse, in the presence of increasing concentrations of antibodies (0-120 nM).
(§3) A MET-Fc chimeric protein (either human or mouse) was immobilized in solid phase and exposed to a fixed concentration of biotinylated HGF (either human or mouse), in the presence of increasing concentrations of antibodies. […] Antibody-HGF competition is expressed as IC₅₀ (the concentration that achieves 50% competition) and IMAX (the maximum % competition reached at saturation).

[3] = target: T3, human MET extracellular domain (ECD) (human, UniProt P08581 25-932); assay: ELISA, MET ECD in solid phase, mAb 0-50 nM
T3 construct: range 1-932; recombinant ECD; also called hMET; human MET ECD
Description: Using human MET as a template, we mutagenized each of these residues in different permutations, generating a series of MET mutants that are fully human except for specific residues, which are llama. Next, we tested the affinity of selected SEMA-binding mAbs (71D6, 71C3, 71D4, 71A3, 71G2) and PSI-binding mAbs (76H10 and 71G3) for these MET mutants by ELISA. To this end, the various MET proteins were immobilized in solid phase (100 ng/well in a 96-well plate) and then exposed to increasing concentrations of antibodies (0-50 nM) solution. […] Wild-type human MET was used as positive control.
TABLE 18 The epitopes of MET responsible for agonistic antibody binding represent residues conserved among H. sapiens, M. musculus, R. norvegicus, M. fascicularis but not among the same species and L. glama. The relevance of residues conserved among human, mouse, rat, cynomolgus monkey but not llama MET for binding to agonistic mAbs was tested by ELISA. Wild-type (WT) or mutant (MT) human MET ECD was immobilized in solid phase and exposed to increasing concentrations of mAbs in solution. […] All binding values were normalized to the WT protein and are expressed as % binding (EMAX) compared to WT MET.

[4] = target: human MET ECD mutant E (mutations 2, 3, 4) (human) (UniProt P08581); assay: ELISA, MET ECD mutant in solid phase, mAb 0-50 nM
[5] = target: human MET ECD mutant D (mutations 1, 2) (human) (UniProt P08581); assay: ELISA, MET ECD mutant in solid phase, mAb 0-50 nM
[6] = target: human MET ECD mutant H (mutations 2, 4) (human) (UniProt P08581); assay: ELISA, MET ECD mutant in solid phase, mAb 0-50 nM
[7] = target: human MET ECD mutant A (mutations 1, 2, 3) (human) (UniProt P08581); assay: ELISA, MET ECD mutant in solid phase, mAb 0-50 nM
[8] = target: T4, native mouse MET on living mouse cells (mouse, UniProt P16056 25-1379); assay: flow cytometry, MLP29 cells
T4 construct: whole, on cells; also called Mouse cells (MLP29)
Description: as §1

[9] = target: T1, native human MET on living human cells; assay: cell-based or functional assay
[10] = target: T4, native mouse MET on living mouse cells; assay: cell-based or functional assay
[11] = target: T5, mouse MET-Fc chimeric protein (R&D Systems) (mouse, UniProt P16056 25-929, limits assumed); assay: competition ELISA, mMET-Fc in solid phase, competitor 0.3 nM biotinylated mHGF
T5 construct: bought (R&D Systems); also called mMET; not shown: Fc
Description: as §2, §3

[12] = target: T1, native human MET on living human cells; assay: cell-based or functional assay; remark: listed apart in the source
[13] = target: T4, native mouse MET on living mouse cells; assay: cell-based or functional assay; remark: listed apart in the source

Binder | EMAX (% relative to control) [1] [%] | IMAX (maximum % competition) [2] [%] | % binding (EMAX) compared to WT MET [3] [%] | % binding (EMAX) compared to WT MET [4] [%] | % binding (EMAX) compared to WT MET [5] [%] | % binding (EMAX) compared to WT MET [6] [%] | % binding (EMAX) compared to WT MET [7] [%] | EMAX (% relative to control) [8] [%] | protection from staurosporine, viability EC50, MCF10A [9] [nM] | protection from staurosporine, viability EMAX, MCF10A [9] [%] | protection from staurosporine, viability EC50, MLP29 [10] [nM] | protection from staurosporine, viability EMAX, MLP29 [10] [%] | IMAX (maximum % competition) [11] [%] | cell scattering score, HPAF-II, 0.001 nM [12] [score 0-4] | cell scattering score, HPAF-II, 0.004 nM [12] [score 0-4] | cell scattering score, HPAF-II, 0.012 nM [12] [score 0-4] | cell scattering score, HPAF-II, 0.037 nM [12] [score 0-4] | cell scattering score, HPAF-II, 0.111 nM [12] [score 0-4] | cell scattering score, HPAF-II, 0.333 nM [12] [score 0-4] | cell scattering score, HPAF-II, 1.000 nM [12] [score 0-4] | further results
chimeric llama-human IgG1 mAb 71D6 (antibody, V domains shown) VH: ELQLVESGGGLVQPGGSLRLSCAASGFTFSSYGMSWVRQAPGKGLEWVSAINSYGGSTSYADSVKGRFTISRDNAKNTLYLQMNSLKPEDTAVYYCAKEVRADLSRYNDYESYDYWGQGTQVTVSS VL: QPVLNQPSALSVTLGQTAKITCQGGSLGARYAHWYQQKPGQAPVLVIYDDDSRPSGIPERFSGSSSGGTATLTISGAQAEDEGDYYCQSADSSGSVFGGGTHLTVL | 113 | 98.3 | 100 | 43.6 | 128 | 38.6 | 103 | 121 | 1.48 | 66.8 | 0.95 | 68.3 | 90.5 | 0 | 1 | 2 | 3 | 4 | 4 | 4 | cell scattering score, HPAF-II, 3.000 nM [12]: 4 score 0-4; cell scattering score, HPAF-II, 9.000 nM [12]: 4 score 0-4; cell scattering score, MLP29, 0.001 nM [13]: 0 score 0-4; cell scattering score, MLP29, 0.004 nM [13]: 1 score 0-4; cell scattering score, MLP29, 0.012 nM [13]: 2 score 0-4; cell scattering score, MLP29, 0.037 nM [13]: 3 score 0-4; cell scattering score, MLP29, 0.111 nM [13]: 4 score 0-4; cell scattering score, MLP29, 0.333 nM [13]: 4 score 0-4; cell scattering score, MLP29, 1.000 nM [13]: 4 score 0-4; cell scattering score, MLP29, 3.000 nM [13]: 4 score 0-4; cell scattering score, MLP29, 9.000 nM [13]: 4 score 0-4
chimeric llama-human IgG1 mAb 71C3 (antibody, V domains shown) VH: QLQLVESGGGLVQPGGSLRLSCAASGFTFSSHAMSWVRQAPGKGLEWVSAINSGGGSTSYADSVKGRFTISRDNAKNTLYLQMNSLKPEDTAVYYCAKELRFDLARYTDYEAWDYWGQGTQVTVSS VL: SYELTQPSALSVTLGQTAKITCQGGSLGSSYAHWYQQKPGQAPVLVIYDDDSRPSGIPERFSGSSSGGTATLTISGAQAEDEGDYYCQSADSSGNAAVFGGGTHLTVL | 106 | 93.6 | 100 | 59.6 | 102 | 61.6 | 99.8 | 115 | 31.9 | 50.2 | 31 | 51.3 | 89.2 | 0 | 0 | 0 | 0 | 1 | 2 | 3 | cell scattering score, HPAF-II, 3.000 nM [12]: 4 score 0-4; cell scattering score, HPAF-II, 9.000 nM [12]: 4 score 0-4; cell scattering score, MLP29, 0.001 nM [13]: 0 score 0-4; cell scattering score, MLP29, 0.004 nM [13]: 0 score 0-4; cell scattering score, MLP29, 0.012 nM [13]: 0 score 0-4; cell scattering score, MLP29, 0.037 nM [13]: 0 score 0-4; cell scattering score, MLP29, 0.111 nM [13]: 1 score 0-4; cell scattering score, MLP29, 0.333 nM [13]: 2 score 0-4; cell scattering score, MLP29, 1.000 nM [13]: 3 score 0-4; cell scattering score, MLP29, 3.000 nM [13]: 4 score 0-4; cell scattering score, MLP29, 9.000 nM [13]: 4 score 0-4
chimeric llama-human IgG1 mAb 71D4 (antibody, V domains shown) VH: ELQLVESGGGLVQPGGSLRLSCAASGFTFSGYGMSWVRQAPGKGLEWVSDINSGGGSTSYADSVKGRFTISRDNAKNTLYLQMNSLKPEDTAVYYCAKDMRLYLARYNDYEAWDYWGQGTQVTVSS VL: SSALTQPSALSVTLGQTAKITCQGGSLGSSYAHWYQQKPGQAPVLVIYDDDSRPSGIPERFSGSSSGGTATLTISGAQAEDEGDYYCQSADSSGNAAVFGGGTHLTVL | 107 | 95.6 | 100 | 57.2 | 120 | 58.7 | 114 | 94.8 | 30.2 | 51.7 | 29.8 | 52.1 | 91.3 | 0 | 0 | 0 | 0 | 0 | 0 | 1 | cell scattering score, HPAF-II, 3.000 nM [12]: 2 score 0-4; cell scattering score, HPAF-II, 9.000 nM [12]: 2 score 0-4; cell scattering score, MLP29, 0.001 nM [13]: 0 score 0-4; cell scattering score, MLP29, 0.004 nM [13]: 0 score 0-4; cell scattering score, MLP29, 0.012 nM [13]: 0 score 0-4; cell scattering score, MLP29, 0.037 nM [13]: 0 score 0-4; cell scattering score, MLP29, 0.111 nM [13]: 0 score 0-4; cell scattering score, MLP29, 0.333 nM [13]: 0 score 0-4; cell scattering score, MLP29, 1.000 nM [13]: 1 score 0-4; cell scattering score, MLP29, 3.000 nM [13]: 2 score 0-4; cell scattering score, MLP29, 9.000 nM [13]: 2 score 0-4
